The nature of the series: protein stability index of a GFP-peptide fusion (GPS, HEK-293T) (PSI 1-6); higher = more stable.
Where [1] appears, read: treatment: DMSO, c terminus: a fixed tail appended.
Where [2] appears, read: treatment: MLN4924 1 uM, 8 h, c terminus: a fixed tail appended.
Where [3] appears, read: treatment: DMSO, c terminus: native.
The mark [4] stands for this setting: treatment: MLN4924 1 uM, 8 h, c terminus: native.

± gives the standard deviation.
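Further: 24-mer peptide tiles fused after GFP, lentivirally expressed, FACS-sorted into six equal bins by GFP/DsRed ratio, decoded by Illumina sequencing, PSI is the read-weighted mean bin number.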

MQSLDDATKQLDFTRKTLAEKKQE [SASS6]: the protein stability index was found to be 5.12 ± 0.24 under setting [1] and 5.19 ± 0.27 under setting [2].
Taken in the same sequence, the figures for LAEVAPVVTTEHILVSVAAGVSLS [PYCR3] were 2.22 ± 0.27 and 2.44 ± 0.21.
Taken in the same sequence, the figures for LSASKDRTMRLWNIEEIDEIPLVI [WDR88] were 2.19 ± 0.21 and 2.39 ± 0.14.
Taken in the same sequence, the figures for QEGAASKVLGRLRALSDTTEELTV [SLC2A12] were 4.46 ± 0.31 and 4.65 ± 0.37.
On to PNVIEYYENFLEDKALMIAMEYAP [NEK8], for which the protein stability index runs as follows: under setting [1], 2.32 ± 0.21; under setting [2], 2.25 ± 0.21.
On to YFTQTLLPGLAGPSGEMVKSTTSL [MLH1], for which the protein stability index under setting [2] was found to be 2.51 ± 0.21.
On to DNSLINQIENLNIQVEDIRIRAIL [LOXL2], for which the protein stability index under setting [1] is 2.59 ± 0.25 and the protein stability index under setting [2] was 2.66 ± 0.17.
With LFRELWRYHFATGVWHQMGTDGYM [KLHDC10], the protein stability index reads like this: under setting [1], 3 ± 0.66; under setting [2], 2.8 ± 0.47.
The corresponding values for ESKVKDILSKVQKNHVGKPLLKMD [FAM98B] are 3.49 ± 0.17 and 3.79 ± 0.19.
For the sequence IFLNGNRERPLNVFCDMETDGGGW [TNXB], the protein stability index is, setting by setting: under setting [1], 1.91 ± 0.48; under setting [2], 2.67 ± 0.54.
Taken in the same sequence, the figures for GELVLATAISSFTRHVFTCGRRGI [TLE6] were 2.37 ± 0.31 and 2.52 ± 0.52.
With WDLRDQSVVRDLKGYPDGVKSIVV [TLE6], the protein stability index under setting [1] came to 2.63 ± 0.25 and the protein stability index under setting [2] is 2.63 ± 0.077.
Consider RLSVELTSSLFRTEPMAWNETADL [CTNNB1], for which the protein stability index reads like this: under setting [1], 2.83 ± 0.2; under setting [2], 3.03 ± 0.31.
As to RAASSQRAEEEDDDIKQLAAWAT [CHMP4C], the protein stability index was determined as 5.34 ± 0.4 under setting [3] and 5.2 ± 0.2 under setting [4].
As to LRAPTISDLLNDQDLLDVIRIKLD [EDARADD], the protein stability index is, setting by setting: under setting [1], 2.11 ± 0.61; under setting [2], 2.06 ± 0.29.
The corresponding values for LLRPKYRAPQGCSGVDECARQEGL [PBXIP1] are 3.56 ± 0.23 and 3.65 ± 0.37.
Taken in the same sequence, the figures for AAVEGSGGSGGGSHHHHQSRGACT [KCNA4] were 4.97 ± 0.16 and 4.7 ± 0.71.
The corresponding values for PLPGKAFLRQLPFRGDDGIFDDNF [SNX3] are 3.47 ± 0.23 and 3.41 ± 0.47.
On to KTVSLQIFSVLNSDDAAAPALETQ [SMOC2], for which the protein stability index reads like this: under setting [1], 3.2 ± 0.59; under setting [2], 3.56 ± 0.38.
The corresponding values for GRIACANVLSDLYAMGITECDNML [SEPHS2] are 2.4 ± 0.41 and 2.43 ± 0.32.
Taken in the same sequence, the figures for MNRAFSRKKDKTWMHTPEALSKHF [GULP1] were 2.69 ± 0.21 and 2.85 ± 0.14.
The corresponding values for QREEVEERMWAAIQSWDINSRRNI [ZER1] are 3.75 ± 0.36 and 3.69 ± 0.29.
For FEPVKSFFKGLVEAVESTLQTPLD [TRIM14], the protein stability index reads like this: under setting [1], 2.19 ± 0.2; under setting [2], 2.4 ± 0.23.
As for SSRPENIPPKEFHFRHPKRSVSLS [BNIP3L], the protein stability index by setting is: under setting [1], 4.29 ± 0.35; under setting [2], 4.24 ± 0.051.
The corresponding values for LGTDPTHVMGLYPDLLPTDYRKQL [VPS39] are 3.34 ± 0.36 and 3.42 ± 0.41.
Taken in the same sequence, the figures for TPASQSPKKPPAKDPLADLNIKDF [SNAP91] were 5.06 ± 0.092 and 4.87 ± 0.25.
Taken in the same sequence, the figures for LESEGKNSKKEEPQELLQSQDFVG [ATE1] were 5.73 ± 0.27 and 5.54 ± 0.14.
On to HNYNILIATLRVALPSVMRFCCCV [MCOLN1], for which the protein stability index came out at 2.83 ± 0.59 under setting [1] and 2.9 ± 0.48 under setting [2].
Regarding FEQYCAWQLFLAHNIPLETIIPIL [INTS3], the protein stability index by setting is: under setting [1], 3.27 ± 0.74; under setting [2], 2.85 ± 0.34.
Taken in the same sequence, the figures for STPLSPAYISLVEEEDQHMKLSLG [KLHL13] were 4.27 ± 0.16 and 4.28 ± 0.19.
For the sequence QLQHDFPRALIFSTDDFFFREDGA [N4BP2L1], the protein stability index under setting [1] is 3.09 ± 0.24 and the protein stability index under setting [2] was determined as 3.08 ± 0.47.
The corresponding values for LTRIRKWIEHSKLREINFKIVEFN [GLT8D2] are 2.48 ± 0.44 and 2.51 ± 0.39.
The corresponding values for MSSRKVLAIQARKRRPKREKHPKK [SRPK2] are 4.41 ± 0.28 and 4.46 ± 0.52.
Taken in the same sequence, the figures for QIHLDVDNDRTTPSDLDSTGNSLN [DLC1] were 5.19 ± 0.25 and 5.28 ± 0.18.
Consider QLLLHNTVIFYGADSEQADIARML [ZMYND11], for which the protein stability index came out at 2.28 ± 0.089 under setting [1] and 2.3 ± 0.13 under setting [2].
The corresponding values for AFNQNSSLGRHKRTHTGEKPYTCS [ZNF8] are 3.42 ± 0.33 and 3.79 ± 0.49.
The corresponding values for PIGILTTSYCELLQNKVPLLGSST [PPTC7] are 2.63 ± 0.53 and 2.66 ± 0.47.
Taken in the same sequence, the figures for TQHHFAFQNAERAFKAAALIQRWY [PPEF2] were 3.09 ± 0.14 and 3.08 ± 0.18.
As for LDSQTEIYQYVQNSMAPHPARDYV [DLC1], the protein stability index reads like this: under setting [1], 2.99 ± 0.42; under setting [2], 3.09 ± 0.25.
Taken in the same sequence, the figures for LPIKIAAIIASLTFLYTLLREVIH [STEAP1] were 2.53 ± 0.41 and 1.82 ± 0.64.
Taken in the same sequence, the figures for FMLRYLYSQKESGHSNWLGDPEEP [ATL3] were 2.75 ± 0.33 and 2.06 ± 0.48.
Taken in the same sequence, the figures for SNLCCFIPGKVIDEIYRVLRYVNS [FBXO28] were 2 ± 0.66 and 2.38 ± 0.26.
YHTSQSGDEMTSLSEYVSRMKETQ [HSP90AB1]: the protein stability index is, setting by setting: under setting [1], 3.9 ± 0.25; under setting [2], 3.96 ± 0.23.
Taken in the same sequence, the figures for HPVLHKEEKQHLERLNKEYQEIFQ [TRIM43] were 3.9 ± 0.47 and 4.06 ± 0.4.
Take MGKRDTADIISTVEFNHTGELLAT [PPP2R2C]: the protein stability index under setting [1] stood at 3.62 ± 0.21 and the protein stability index under setting [2] came to 3.89 ± 0.31.
Take PSSSGHLADSDTLSSAEENEPSQA [C18orf25]: the protein stability index under setting [1] worked out at 5.56 ± 0.22 and the protein stability index under setting [2] came to 5.52 ± 0.11.
The corresponding values for YTPTAEDSAQMQNGGPSTPPASPP [ANKRD40] are 5.27 ± 0.22 and 5.16 ± 0.2.
The corresponding values for KKNSSPPLSLYGQLLWREFFYTAA [CRY1] are 2.42 ± 0.46 and 2.67 ± 0.63.
The corresponding values for DPLRSGTVLVSVTVFDANDNAPVF [PCDHGA10] are 2.73 ± 0.42 and 2.82 ± 0.6.
Turning to APLSGPQALMLPPGSFWGLCQVAQ [VENTX], the protein stability index by setting is: under setting [1], 2.06 ± 0.28; under setting [2], 2.27 ± 0.14.
The corresponding values for VKYIVERTMLDFPQHVSSDKEVRA [NLN] are 2.82 ± 0.36 and 2.69 ± 0.25.
Taken in the same sequence, the figures for TSPLTAEKLCIYTDNSIKPQELLE [CCND2] were 4.05 ± 0.23 and 4.08 ± 0.27.
Taken in the same sequence, the figures for EEFPKREDQEGSPPETSLPYKWVV [MYBL2] were 3.83 ± 0.33 and 3.99 ± 0.41.
In the case of RQSRRQSVSRFFADSGADPKGEPG [FBF1], the protein stability index by setting is: under setting [1], 5.04 ± 0.12; under setting [2], 5.11 ± 0.17.
The corresponding values for AVIKSNHSYCRMFLQRGADTNLGR [ASB7] are 2.26 ± 0.16 and 2.41 ± 0.14.
Taken in the same sequence, the figures for DMVQKSVSKTLPSTWSDPSVNISL [CLINT1] were 3.04 ± 0.19 and 3.2 ± 0.19.
Taken in the same sequence, the figures for RERMELLEEAKKMEMAKFRYILPV [RIPK4] were 2.48 ± 0.22 and 2.84 ± 0.4.
With SRALALFDIQKIMQEKNPVHVIGV [ZNF8], the protein stability index is 2.52 ± 0.27 under setting [1] and 1.89 ± 0.39 under setting [2].
The corresponding values for EDQVPALEAPEDIGSTSESKDWEE [MIA2] are 5.8 ± 0.12 and 5.71 ± 0.27.
For KQVCKIAALHGLEETKKLANKYLV [KLHL14], the protein stability index is, setting by setting: under setting [1], 2.03 ± 0.31; under setting [2], 2.35 ± 0.32.
For NIIAIAATNNLYIFQDKVNSDMH [PPP2R2C], the protein stability index under setting [3] was determined as 2.36 ± 0.49 and the protein stability index under setting [4] stood at 2.09 ± 0.2.
In the case of FWSVMFFLMLINLGLGSMIGTMAG [SLC6A17], the protein stability index runs as follows: under setting [1], 3.2 ± 0.55; under setting [2], 3.49 ± 0.57.
Consider TQIKGLKNKPKKMGHIKPDLIDVD [PHTF1], for which the protein stability index runs as follows: under setting [1], 4.42 ± 0.16; under setting [2], 4.34 ± 0.26.
ELAGVDTELLAERFYYQALSVAPQ [SMG5]: the protein stability index was determined as 2.68 ± 0.25 under setting [1] and 2.88 ± 0.16 under setting [2].
Taken in the same sequence, the figures for SYPNPNEDKCPGNYTNPLKVQTVI [TMEM192] were 3.17 ± 0.36 and 3.29 ± 0.22.
Taken in the same sequence, the figures for PRASISHVTCVDQSEHTMVLRCQL [C2CD2L] were 2.34 ± 0.26 and 2.26 ± 0.28.
The corresponding values for LLPLVTLCDGNPRRPSPVLRHLEL [SCNN1D] are 2.42 ± 0.42 and 2.27 ± 0.46.
For the sequence GRQLEKVPEKRDSGMTEVERTYSA [SPATS1], the protein stability index stood at 5.22 ± 0.3 under setting [1] and 5.24 ± 0.4 under setting [2].
Taken in the same sequence, the figures for NEDGPSSENLEEETENIIAANHWV [TRIP13] were 5.08 ± 0.31 and 5.42 ± 0.23.
The corresponding values for MVHKRSHTGERPFQCNQCGASFTQ [IKZF1] are 2.86 ± 0.25 and 2.97 ± 0.43.
In the case of CWYCNRDFDDEKILIQHQKAKHFK [ZNF207], the protein stability index reads like this: under setting [1], 4.59 ± 0.39; under setting [2], 4.45 ± 0.22.
Taken in the same sequence, the figures for EIYKRFLTRMTRVSEFLKVAEQVG [SNAP91] were 2.44 ± 0.63 and 2.45 ± 0.24.

Source of the values: the supplement of paper PMC10567573.
